How the values were obtained:
[1] = molecular target: T1, human KLB and human FGFR1c co-expressed on HEK293/hKLB/hFGFR1c/SRE-luc cells (human, UniProt Q86Z14 1-1044; P11362 22-822); experiment: FACS on stable HEK293 cells, 33 nM
T1 construct: two receptors co-expressed on one cell line; also called KLB/FGFR1c coreceptor; FGF21R
Experimental: (§1) For the FACS analysis, HEK293 parental, HEK293/hFGFR1c, HEK293/hFGFR1c/hKLB, and HEK293/mFGFR1c/mKLB cells were dissociated and plated onto 96-well v-bottom plates at 0.5×10⁶ cells/well in 2% FBS/PBS. […] Control mAb2 was tested at a concentration of 965 nM. After primary protein incubation cells were washed and incubated with 3.75 μg/mL fluorescently conjugated secondary antibodies for 30 minutes at 4° C. Cells were filtered and analyzed on Accuri™ 6 Flow Cytometer. Unstained and secondary antibody alone controls were also tested for all cell lines. The results were analyzed using FlowJo version 9.52 software and geometric mean (Geom. Mean) of fluorescence for viable cells were determined. Geom. mean of fluorescence for each antibody was then normalized to Geom. mean of unstained cells to obtain relative binding of antibody (binding ratios) per each cell type.

[2] = molecular target: T2, full-length human FGFR1c on HEK293/hFGFR1c/SRE-luc cells (human, UniProt P11362 22-822); experiment: FACS on stable HEK293 cells, 965 nM
T2 construct: amino acids 1-733 of NP_075593
T2 sequence (P11362 other isoform, or with tags, fused parts or gaps limits assumed): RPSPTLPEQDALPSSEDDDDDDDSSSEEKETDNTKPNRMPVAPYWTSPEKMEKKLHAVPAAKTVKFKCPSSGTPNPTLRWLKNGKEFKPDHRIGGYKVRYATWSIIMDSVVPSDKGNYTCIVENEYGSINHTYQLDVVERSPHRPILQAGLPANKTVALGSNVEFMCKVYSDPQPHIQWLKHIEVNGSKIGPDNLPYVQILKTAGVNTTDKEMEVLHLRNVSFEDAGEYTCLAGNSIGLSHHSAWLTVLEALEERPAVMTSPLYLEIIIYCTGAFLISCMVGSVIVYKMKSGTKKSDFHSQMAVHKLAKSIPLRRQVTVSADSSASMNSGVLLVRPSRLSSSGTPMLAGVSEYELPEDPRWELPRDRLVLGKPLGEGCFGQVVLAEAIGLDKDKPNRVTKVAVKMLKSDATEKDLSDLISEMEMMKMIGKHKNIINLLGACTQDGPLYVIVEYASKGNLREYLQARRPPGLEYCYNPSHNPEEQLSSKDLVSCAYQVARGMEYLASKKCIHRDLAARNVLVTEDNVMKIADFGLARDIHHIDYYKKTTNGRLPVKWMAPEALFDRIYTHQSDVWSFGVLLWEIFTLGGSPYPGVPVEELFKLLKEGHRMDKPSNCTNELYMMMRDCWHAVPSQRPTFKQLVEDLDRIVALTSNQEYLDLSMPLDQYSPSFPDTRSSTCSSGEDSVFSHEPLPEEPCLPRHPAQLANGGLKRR
Experimental: as §1

[3] = molecular target: T1, human KLB and human FGFR1c co-expressed …; experiment: FACS on stable HEK293 cells, 965 nM
Experimental: as §1

T1 sequence (Q86Z14 whole entry, chain 1 of 2): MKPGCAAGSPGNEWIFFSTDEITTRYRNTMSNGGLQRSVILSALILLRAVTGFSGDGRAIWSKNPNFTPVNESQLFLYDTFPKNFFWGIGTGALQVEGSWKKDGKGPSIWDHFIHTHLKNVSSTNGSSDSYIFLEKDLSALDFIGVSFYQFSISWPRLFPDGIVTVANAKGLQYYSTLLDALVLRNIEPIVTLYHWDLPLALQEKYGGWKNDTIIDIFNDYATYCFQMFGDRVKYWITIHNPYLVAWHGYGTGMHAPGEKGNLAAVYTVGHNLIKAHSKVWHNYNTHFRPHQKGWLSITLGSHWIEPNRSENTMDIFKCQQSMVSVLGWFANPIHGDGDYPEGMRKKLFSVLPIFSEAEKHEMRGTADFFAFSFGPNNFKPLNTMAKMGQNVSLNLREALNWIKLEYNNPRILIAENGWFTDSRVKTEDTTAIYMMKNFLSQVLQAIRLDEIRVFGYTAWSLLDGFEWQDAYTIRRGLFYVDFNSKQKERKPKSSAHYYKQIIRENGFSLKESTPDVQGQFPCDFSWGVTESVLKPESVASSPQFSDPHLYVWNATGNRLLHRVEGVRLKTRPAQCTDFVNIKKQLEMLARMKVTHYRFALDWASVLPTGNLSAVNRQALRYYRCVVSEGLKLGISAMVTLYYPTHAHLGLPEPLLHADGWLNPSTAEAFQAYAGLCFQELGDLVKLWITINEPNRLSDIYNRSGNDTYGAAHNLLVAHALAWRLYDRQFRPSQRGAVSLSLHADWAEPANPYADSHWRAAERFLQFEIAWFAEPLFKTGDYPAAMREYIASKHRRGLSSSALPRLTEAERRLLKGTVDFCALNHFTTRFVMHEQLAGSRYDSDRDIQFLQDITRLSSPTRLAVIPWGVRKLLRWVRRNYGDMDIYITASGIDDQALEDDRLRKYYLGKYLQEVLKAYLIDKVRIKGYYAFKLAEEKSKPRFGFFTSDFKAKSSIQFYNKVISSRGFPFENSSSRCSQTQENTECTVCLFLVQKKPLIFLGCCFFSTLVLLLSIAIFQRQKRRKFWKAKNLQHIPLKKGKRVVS
T1 sequence (P11362 other isoform, or with tags, fused parts or gaps limits assumed, chain 2 of 2): as the sequence (P11362 other isoform, or with tags, fused parts or gaps limits assumed) above

B1: H1H8900P (antibody, V domains shown)
VH: QVQLVESGGGVVQPGRSLRLSCVASGFTFSSYGMHWVRQAPGKGLEWVAVISFDGSNKYYADSVKGRFTISRDNSKNTLYLQMNSLRPADTAVYYCAKDRSNYYYFGMDVWGQGTTVTVSS
VL: DIVMTQTPLSLPVTPGEPASISCRSSQSLLDSDDGNTYLDWYLQKPGQSPQLLIYTLSYRASGVPDRFSGSGSGTDFTLKISRVEAEDVGVYYCMQRIEFPLTFGGGTKVEIK
notes: H1H Fc prefix (human Fc)
For B1, the “MFI Ratio to unstained cells” value [1] was 2 fold, the “MFI Ratio to unstained cells” value [2] was 5 fold and the “MFI Ratio to unstained cells” value [3] was 5 fold.
